Reference: patent CN111363043A (FUZHOU MAIXIN BIOTECHNOLOGY DEV CO LTD, dated 2020)

Biological target: T1, CD20蛋白 (UniProt P11836, 297 amino acids) (human, UniProt P11836 1-297)
T1 construct: whole, on cells; Endogenous CD20 in formalin-fixed paraffin tissue sections (B-cell lymphoma, tonsil, appendix) detected by IHC. 'Human' is stated for CD20 in the abstract; The species of the tissues is not explicitly stated
T1 sequence (looked up): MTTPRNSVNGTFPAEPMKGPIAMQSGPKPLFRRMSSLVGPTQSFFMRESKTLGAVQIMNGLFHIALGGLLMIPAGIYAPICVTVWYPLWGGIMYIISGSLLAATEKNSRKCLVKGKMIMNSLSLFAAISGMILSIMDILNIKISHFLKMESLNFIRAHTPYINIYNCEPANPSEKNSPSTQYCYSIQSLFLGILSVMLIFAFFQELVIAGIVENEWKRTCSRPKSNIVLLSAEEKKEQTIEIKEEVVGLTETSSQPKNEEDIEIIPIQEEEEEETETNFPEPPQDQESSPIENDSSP
Assay: IHC, appendix tissue (Fig. 5)

binding result: binds
B1: 抗CD20蛋白单克隆抗体 (secreted by mouse hybridoma cell line AbM58020-32A8-PU, CGMCC NO.17491) (antibody, V domains shown)
VH: EVKLQESGPSLVKPGASVKISCKASGNTFTDYYMNWVRQSHGQSLEWIGRFIPSTAKTNYNHKFKDKATLTLDTSLSTAYMQLNSLTSEDSAVYYCRSDFAFWGQGTLVTVSA
VL: DILMTQSPLSLSITIGQPASISCKSSQSLLYSNGKTYLNWLLQRPGQSPKRLIYIVSKLDSGVPDRFTGSGSGTDFTLKISRVEAEDLGVYYCGQGTHYPPTFGGGTKLEIK
notes: also called AbM58020-32A8-PU的CD20; AbM58020-32A8-PU杂交瘤分泌抗体
